Test results as given in publication PMC7203678.

Biological target: T1, C-reactive protein human, recombinant (human), P02741
T1 chain: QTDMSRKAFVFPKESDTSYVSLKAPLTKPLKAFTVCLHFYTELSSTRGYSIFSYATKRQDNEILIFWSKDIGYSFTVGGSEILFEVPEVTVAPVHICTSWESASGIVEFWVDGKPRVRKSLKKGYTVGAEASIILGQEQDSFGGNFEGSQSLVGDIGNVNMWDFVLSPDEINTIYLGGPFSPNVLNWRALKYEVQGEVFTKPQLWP
Experiment: native MS
Details: remark: other sources report otherwise

B1: C-reactive protein human, recombinant, P02741 19-224 (natural protein)
chain: T1 chain
stoichiometry N: 5
